According to PMC4158420, “Crenactin from Pyrobaculum calidifontis is closely related to actin in structure and forms steep helical filaments” (Febs Letters, 2014):

Molecular target: the molecule itself
Test: crystal structure; vapour diffusion, crenactin around 2-5 mg/ml, 100 mM phosphate/citrate pH 4.2, 200 mM lithium sulfate, 20% PEG 1000; space group P41212; 3.2 Å; ADP bound

B1: Pyrobaculum calidifontis crenactin (natural protein, UniProt A3MWN5 1-432, looked up)
chain: MGVISDAYRLKYTFGVDFGTSYVKYGPITLNEPKMVQTRGLFLRDLPESVKMRIPPDVLARGLVVGDEEVRKYLSSVRDVQRNLKYPLKDGVARRDDEEAWRVLKELARYTLAQFPVSDPEFAGWLVAVALSALAPDYMYKAIFDIYDELASEFKIYAVTILPQPLAVAIAENAVNCVIVEGGHGNIQVAPISFALIREGLVALNRGGAEANAITREILKDIGYSDIAREEYAVEVVKRAVGLVPRRLKEAIRAAKSDPDRFVTKVRLSPVVEVEIPREYAWTRFLIGEIVFDPNHEEIKSYIEQSRLRIENAVIGDVTLYGEMDVASAIITSLRNVSVEIQERVASQIILSGGAFSWRVPPGMEDVAADSVTRVKIALEEKSPALASKVEVRLVSEPQYSVWRGAVIYGYALPLSLEWSDTTREGWRFPRR
notes: crenactin, Pyrobaculum calidifontis, NCBI YP_001056518.1, residues 1-432; full-length protein with no residues added or removed after SUMO cleavage; Gene codon-optimised for E. coli, cloned into pOPINS (HIS6-SUMO-POI); the crystal holds 2 monomers per asymmetric unit, packing as a continuous filament; also called Pc crenactin; source: E. coli BL21(AI), purified (HisTrap, SUMO protease SENP1 …)
B1: binds.
